Laboratory results taken from patent publication US20140072613A1, “Compositions and Methods for Treating Cutaneous Scarring” (priority 2012, published 2014).

Tests used:
Experiment in all cases: biochemical
Type in all cases: biochemical
266 human kinases [1] = molecular target: 266 human kinases (Homo sapiens, UniProt P48730); details: CK1δ(h); 100 μM
Outline: (§1)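 Radiometric filter-binding format: a positively charged substrate takes up radiolabelled phosphate from ATP unless the kinase is inhibited, then is captured on a negatively charged filter membrane. Counts from scintillation are expressed relative to a 100% activity control.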

266 human kinases [2] = molecular target: 266 human kinases (Homo sapiens, UniProt Q04759); details: PKCθ(h); 100 μM
Sequence of 266 human kinases (Homo sapiens, UniProt Q04759) (Q04759 whole entry): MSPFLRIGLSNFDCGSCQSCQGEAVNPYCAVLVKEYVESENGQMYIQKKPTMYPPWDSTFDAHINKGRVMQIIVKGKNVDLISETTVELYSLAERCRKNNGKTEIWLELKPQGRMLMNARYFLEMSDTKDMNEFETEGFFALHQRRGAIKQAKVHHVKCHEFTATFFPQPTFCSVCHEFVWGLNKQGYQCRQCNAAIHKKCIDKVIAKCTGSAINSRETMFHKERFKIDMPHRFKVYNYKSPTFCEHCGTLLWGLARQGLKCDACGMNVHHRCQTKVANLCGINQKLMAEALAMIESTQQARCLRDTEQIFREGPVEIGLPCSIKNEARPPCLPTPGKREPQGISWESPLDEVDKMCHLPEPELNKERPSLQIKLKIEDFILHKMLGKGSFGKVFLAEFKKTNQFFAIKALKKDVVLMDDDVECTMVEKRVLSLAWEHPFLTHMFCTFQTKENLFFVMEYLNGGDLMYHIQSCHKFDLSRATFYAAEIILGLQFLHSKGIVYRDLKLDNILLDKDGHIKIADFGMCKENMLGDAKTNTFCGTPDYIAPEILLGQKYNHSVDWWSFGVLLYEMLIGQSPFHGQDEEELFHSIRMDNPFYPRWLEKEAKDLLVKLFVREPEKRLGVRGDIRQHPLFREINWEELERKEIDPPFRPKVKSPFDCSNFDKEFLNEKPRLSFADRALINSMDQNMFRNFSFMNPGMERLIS
Outline: as §1

266 human kinases [3] = molecular target: T1, 266 human kinases (Homo sapiens, UniProt Q8N568); details: DCAMKL2(h); 100 μM
T1 sequence (Q8N568 1-766): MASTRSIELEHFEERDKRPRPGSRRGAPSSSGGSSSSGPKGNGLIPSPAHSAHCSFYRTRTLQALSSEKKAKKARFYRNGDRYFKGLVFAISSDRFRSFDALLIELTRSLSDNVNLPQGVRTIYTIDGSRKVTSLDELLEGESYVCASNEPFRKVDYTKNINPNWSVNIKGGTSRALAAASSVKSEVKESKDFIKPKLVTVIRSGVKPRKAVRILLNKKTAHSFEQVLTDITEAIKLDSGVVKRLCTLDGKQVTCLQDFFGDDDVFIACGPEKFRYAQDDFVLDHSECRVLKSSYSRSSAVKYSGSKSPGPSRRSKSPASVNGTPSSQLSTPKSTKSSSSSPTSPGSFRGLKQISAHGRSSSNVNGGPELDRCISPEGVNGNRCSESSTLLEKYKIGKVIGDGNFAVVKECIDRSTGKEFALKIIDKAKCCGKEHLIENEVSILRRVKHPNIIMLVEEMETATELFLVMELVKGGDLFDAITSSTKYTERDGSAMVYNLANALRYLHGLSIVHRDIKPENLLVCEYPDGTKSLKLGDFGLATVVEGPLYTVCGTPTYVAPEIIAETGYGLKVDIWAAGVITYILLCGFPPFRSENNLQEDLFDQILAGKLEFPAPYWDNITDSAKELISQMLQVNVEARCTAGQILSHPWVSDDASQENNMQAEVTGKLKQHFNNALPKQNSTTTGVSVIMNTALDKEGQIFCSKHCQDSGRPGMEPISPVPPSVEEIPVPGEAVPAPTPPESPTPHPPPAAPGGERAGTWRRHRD
Outline: as §1

266 human kinases [4] = molecular target: 266 human kinases (Homo sapiens, UniProt Q16539, T106M); details: SAPK2a(T106M)(h); 100 μM
Sequence of 266 human kinases (Homo sapiens, UniProt Q16539, T106M) (Q16539 whole entry T106M): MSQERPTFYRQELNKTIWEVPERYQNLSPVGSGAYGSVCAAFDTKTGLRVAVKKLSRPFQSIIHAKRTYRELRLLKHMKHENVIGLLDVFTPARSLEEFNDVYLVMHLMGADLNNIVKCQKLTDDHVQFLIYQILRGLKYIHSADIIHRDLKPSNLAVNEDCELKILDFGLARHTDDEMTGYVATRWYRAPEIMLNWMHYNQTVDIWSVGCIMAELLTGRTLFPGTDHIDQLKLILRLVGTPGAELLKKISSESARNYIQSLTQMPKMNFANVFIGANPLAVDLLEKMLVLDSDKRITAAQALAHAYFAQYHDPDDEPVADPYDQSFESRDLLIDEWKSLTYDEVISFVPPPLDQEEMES
Outline: as §1

266 human kinases [5] = molecular target: T2, 266 human kinases (Homo sapiens, UniProt Q06418); details: Rse(h); 100 μM
T2 sequence (Q06418 41-890): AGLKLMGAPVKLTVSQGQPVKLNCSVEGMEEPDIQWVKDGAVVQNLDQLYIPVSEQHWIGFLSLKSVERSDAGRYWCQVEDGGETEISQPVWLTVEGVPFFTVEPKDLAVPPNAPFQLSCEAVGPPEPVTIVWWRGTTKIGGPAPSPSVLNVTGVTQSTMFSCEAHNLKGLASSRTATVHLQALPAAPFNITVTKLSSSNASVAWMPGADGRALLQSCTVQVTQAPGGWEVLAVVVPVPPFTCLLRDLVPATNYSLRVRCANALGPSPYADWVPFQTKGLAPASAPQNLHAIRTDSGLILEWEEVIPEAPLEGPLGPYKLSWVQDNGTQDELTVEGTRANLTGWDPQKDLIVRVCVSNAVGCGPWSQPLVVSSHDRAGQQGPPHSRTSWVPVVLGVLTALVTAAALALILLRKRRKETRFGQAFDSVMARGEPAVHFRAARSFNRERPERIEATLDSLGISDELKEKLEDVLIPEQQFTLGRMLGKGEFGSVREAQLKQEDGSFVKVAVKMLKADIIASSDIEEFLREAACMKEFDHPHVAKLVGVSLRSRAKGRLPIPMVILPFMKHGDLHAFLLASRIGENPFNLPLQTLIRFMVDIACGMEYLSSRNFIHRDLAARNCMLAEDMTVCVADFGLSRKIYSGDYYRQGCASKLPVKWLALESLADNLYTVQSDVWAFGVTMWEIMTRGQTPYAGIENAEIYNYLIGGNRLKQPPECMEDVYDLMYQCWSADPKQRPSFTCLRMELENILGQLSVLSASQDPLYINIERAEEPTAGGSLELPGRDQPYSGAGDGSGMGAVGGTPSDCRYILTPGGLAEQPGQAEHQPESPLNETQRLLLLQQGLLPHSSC
Outline: as §1

266 human kinases [6] = molecular target: 266 human kinases (Homo sapiens, UniProt Q14289); details: Pyk2 (h); 100 μM
Sequence of 266 human kinases (Homo sapiens, UniProt Q14289) (Q14289 whole entry): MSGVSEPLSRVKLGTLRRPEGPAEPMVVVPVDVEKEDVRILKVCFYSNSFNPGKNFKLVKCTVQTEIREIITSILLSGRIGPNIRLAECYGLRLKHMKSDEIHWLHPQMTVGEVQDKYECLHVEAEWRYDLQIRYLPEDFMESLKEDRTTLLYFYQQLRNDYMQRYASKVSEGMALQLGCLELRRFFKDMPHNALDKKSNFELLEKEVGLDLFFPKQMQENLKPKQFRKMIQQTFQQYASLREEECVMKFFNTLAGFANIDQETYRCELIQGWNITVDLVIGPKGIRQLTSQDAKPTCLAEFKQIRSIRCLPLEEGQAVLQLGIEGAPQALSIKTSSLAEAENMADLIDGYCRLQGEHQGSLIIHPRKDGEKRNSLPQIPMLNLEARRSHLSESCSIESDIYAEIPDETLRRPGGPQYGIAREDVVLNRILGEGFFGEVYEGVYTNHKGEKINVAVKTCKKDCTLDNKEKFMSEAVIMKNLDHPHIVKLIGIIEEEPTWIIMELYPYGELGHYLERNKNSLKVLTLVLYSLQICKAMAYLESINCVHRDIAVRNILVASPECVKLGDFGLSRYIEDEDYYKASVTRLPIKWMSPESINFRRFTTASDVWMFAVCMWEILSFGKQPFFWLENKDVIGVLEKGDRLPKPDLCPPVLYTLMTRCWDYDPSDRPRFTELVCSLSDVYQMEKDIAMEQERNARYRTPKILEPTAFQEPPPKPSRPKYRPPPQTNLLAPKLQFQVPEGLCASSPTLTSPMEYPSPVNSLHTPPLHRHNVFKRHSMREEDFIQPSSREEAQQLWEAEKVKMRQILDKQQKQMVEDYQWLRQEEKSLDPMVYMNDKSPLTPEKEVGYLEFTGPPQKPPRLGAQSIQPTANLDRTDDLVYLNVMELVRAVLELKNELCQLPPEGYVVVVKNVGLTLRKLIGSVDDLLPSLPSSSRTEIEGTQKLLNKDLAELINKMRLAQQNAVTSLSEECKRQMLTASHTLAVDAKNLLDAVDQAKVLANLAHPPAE
Outline: as §1

266 human kinases [7] = molecular target: 266 human kinases (Homo sapiens, UniProt P31749); details: PKBα(h); 100 μM
Sequence of 266 human kinases (Homo sapiens, UniProt P31749) (P31749 whole entry): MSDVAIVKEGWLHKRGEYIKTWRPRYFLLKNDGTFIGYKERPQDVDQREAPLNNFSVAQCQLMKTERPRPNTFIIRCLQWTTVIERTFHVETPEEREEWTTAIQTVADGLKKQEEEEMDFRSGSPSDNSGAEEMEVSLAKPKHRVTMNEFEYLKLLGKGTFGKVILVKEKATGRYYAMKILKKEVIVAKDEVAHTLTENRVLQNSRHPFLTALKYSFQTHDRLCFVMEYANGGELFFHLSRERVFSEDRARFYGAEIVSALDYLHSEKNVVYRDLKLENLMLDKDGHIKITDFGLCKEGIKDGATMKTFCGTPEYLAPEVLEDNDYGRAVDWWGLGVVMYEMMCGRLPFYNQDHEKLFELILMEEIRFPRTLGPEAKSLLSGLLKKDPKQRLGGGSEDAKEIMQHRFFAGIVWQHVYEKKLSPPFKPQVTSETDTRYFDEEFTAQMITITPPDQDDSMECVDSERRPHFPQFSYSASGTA
Outline: as §1

266 human kinases [8] = molecular target: T3, 266 human kinases (Homo sapiens, UniProt Q8TDC3); details: BrSK1(h); 100 μM
T3 sequence (Q8TDC3 1-778): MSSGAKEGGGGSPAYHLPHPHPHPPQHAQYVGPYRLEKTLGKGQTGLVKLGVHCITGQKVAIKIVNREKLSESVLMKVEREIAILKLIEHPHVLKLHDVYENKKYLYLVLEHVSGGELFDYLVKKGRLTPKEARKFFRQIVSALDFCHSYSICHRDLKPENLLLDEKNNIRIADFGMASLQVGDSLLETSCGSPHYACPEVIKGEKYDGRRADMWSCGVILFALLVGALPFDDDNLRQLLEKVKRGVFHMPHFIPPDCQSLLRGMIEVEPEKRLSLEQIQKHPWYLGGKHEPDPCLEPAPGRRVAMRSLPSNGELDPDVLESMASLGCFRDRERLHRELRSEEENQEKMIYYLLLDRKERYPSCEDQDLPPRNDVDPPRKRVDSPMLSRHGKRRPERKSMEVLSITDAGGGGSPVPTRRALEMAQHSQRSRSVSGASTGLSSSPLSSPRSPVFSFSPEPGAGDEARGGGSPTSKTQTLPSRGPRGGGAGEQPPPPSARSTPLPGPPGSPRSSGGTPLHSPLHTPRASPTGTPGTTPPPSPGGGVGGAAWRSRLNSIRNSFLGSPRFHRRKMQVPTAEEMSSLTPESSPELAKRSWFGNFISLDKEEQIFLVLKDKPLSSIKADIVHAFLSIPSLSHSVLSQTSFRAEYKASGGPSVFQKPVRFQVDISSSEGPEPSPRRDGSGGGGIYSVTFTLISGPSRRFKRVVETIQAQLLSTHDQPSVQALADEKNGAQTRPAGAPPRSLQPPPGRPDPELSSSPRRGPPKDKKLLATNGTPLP
Outline: as §1

Sequence of 266 human kinases (Homo sapiens, UniProt P48730) (P48730 whole entry): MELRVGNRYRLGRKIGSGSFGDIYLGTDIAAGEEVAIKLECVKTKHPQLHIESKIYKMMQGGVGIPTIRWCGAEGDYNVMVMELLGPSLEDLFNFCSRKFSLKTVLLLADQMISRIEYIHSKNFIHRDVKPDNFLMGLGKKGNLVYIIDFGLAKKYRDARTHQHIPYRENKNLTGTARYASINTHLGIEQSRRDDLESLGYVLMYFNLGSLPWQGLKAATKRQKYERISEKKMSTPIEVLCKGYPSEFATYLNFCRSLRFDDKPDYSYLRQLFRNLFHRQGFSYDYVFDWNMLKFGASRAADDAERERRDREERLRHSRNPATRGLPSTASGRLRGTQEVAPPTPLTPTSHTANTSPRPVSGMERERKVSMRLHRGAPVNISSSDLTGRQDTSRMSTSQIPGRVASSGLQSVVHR

Sequence | % activity (266 human kinases [1]) | % activity (266 human kinases [2]) | % activity (266 human kinases [3]) | % activity (266 human kinases [4]) | % activity (266 human kinases [5]) | % activity (266 human kinases [6]) | % activity (266 human kinases [7]) | % activity (266 human kinases [8])
HRRIKAWLKKIKALARQLGVAA (mammal) [MMI-0500] | 78% | 62% | 56% | 32% | 63% | 46% | 30% | 72%
YARAAARQARAKALNRQLGVA (mammal) [MMI-0200] | 92% | 101% | 131% | 100% | 88% | 127% | 110% | 93%
